Paper PMC12311110

How the values were obtained:
endogenous VPS26 = endogenous VPS26 (UniProt O75436); experiment: GFP-based co-IP, western blot band quantification; details: HEK293T cells, transient transfection; normalised to GFP band intensity; n = 3; parent: est. 100; read off a plot
[1] = target: hRetromer (recombinant Retromer trimer) (human) (UniProt Q96QK1); experiment: ITC; Microcal PEAQ-ITC, 25 °C; 1 mM peptide or 530 µM TBC1D13 titrated into 14 µM Retromer; single-site model; mean of triplicate titrations

Chain of recombinant full-length human TBC1D13 (Q9NVG8 whole entry): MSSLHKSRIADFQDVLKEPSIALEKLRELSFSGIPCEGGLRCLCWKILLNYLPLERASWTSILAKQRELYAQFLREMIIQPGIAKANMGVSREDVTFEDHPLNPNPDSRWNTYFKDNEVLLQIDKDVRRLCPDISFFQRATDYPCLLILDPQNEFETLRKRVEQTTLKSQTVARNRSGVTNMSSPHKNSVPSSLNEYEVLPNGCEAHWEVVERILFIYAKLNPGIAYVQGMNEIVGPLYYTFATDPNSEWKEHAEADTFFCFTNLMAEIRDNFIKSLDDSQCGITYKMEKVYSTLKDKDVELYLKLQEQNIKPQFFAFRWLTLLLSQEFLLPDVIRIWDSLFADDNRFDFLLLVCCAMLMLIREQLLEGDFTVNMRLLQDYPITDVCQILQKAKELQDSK

| Substance | percent of parent (relative intensity (WT = 100)) (endogenous VPS26) | Kd [1] | dH [1] |
| --- | --- | --- | --- |
| VPS35-GFP WT (from UniProt Q96QK1) I218D | 120 | – | – |
| recombinant full-length human TBC1D13 (from UniProt Q9NVG8 1-400) (natural protein) | – | 6.3 µM | -8.1 kcal/mol |

Results, then the substance that gave them:

| percent of parent (relative intensity (WT = 100)) (endogenous VPS26) | Kd [1] | dH [1] | Substance |
| --- | --- | --- | --- |
| 110 | – | – | GFP-VPS29 wild-type (from UniProt Q9UBQ0) L152E |
| – | 15.4 µM | -10.1 kcal/mol | human DENND4C peptide 1189-1206 |
| 170 | – | – | GFP-VPS29 wild-type (from UniProt Q9UBQ0) V174D |
